Measurements taken from PMC9055099, “Transcription factor CsWRKY40 regulates L-theanine hydrolysis by activating the CsPDX2.1 promoter in tea leaves during withering”.

Columns and labels:
CsWRKY40 [1] = target: T1, CsWRKY40 (Camellia sinensis, UniProt A0A4S4ET85 1-292); test: EMSA; LightShift Chemiluminescent EMSA kit (ThermoFisher) per instructions; buffer, salt, pH and temperature not stated; conditions: protein: recombinant; tags: GST (pGEX-4T-1); label: 3' biotin on both strands; blunt
CsWRKY40 [2] = target: T1, CsWRKY40; test: competition; unlabelled competitor against biotin probe N1; shift gradually reduced with increasing cold probe; LightShift Chemiluminescent EMSA kit (ThermoFisher) per instructions; buffer, salt, pH and temperature not stated; conditions: protein: recombinant; tags: GST (pGEX-4T-1); blunt

T1 sequence (A0A4S4ET85 entry or part of it): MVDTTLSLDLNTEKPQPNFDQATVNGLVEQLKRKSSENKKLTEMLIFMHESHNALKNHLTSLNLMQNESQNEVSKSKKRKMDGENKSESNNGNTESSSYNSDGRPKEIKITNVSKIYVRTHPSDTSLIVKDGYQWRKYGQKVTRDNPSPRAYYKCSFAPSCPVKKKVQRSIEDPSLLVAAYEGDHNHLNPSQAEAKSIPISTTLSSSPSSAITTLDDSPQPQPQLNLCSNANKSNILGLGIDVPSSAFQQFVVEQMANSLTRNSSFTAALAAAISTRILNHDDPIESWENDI

B1: CsPDX2.1 promoter W box 2 biotin probe (dsDNA)
DNA 1: TTTATTTAAGAATTGACCGTAGATAACTTT
DNA 2: AAAGTTATCTACGGTCAATTCTTAAATAAA
B1: binds (CsWRKY40 [1]).

B2: cold probe (W box 2) (dsDNA)
DNA 1: B1 DNA 1
DNA 2: B1 DNA 2
B2: binds (CsWRKY40 [2]).

B3: mutant probe (TTGACC to AAAAAA) (dsDNA)
DNA 1: TTTATTTAAGAAAAAAAAGTAGATAACTTT
DNA 2: AAAGTTATCTACTTTTTTTTCTTAAATAAA
B3: no binding (CsWRKY40 [1]).
